Consider 6 substances from publication PMC12369479, “A monomer–dimer switch modulates the activity of plant adenosine kinase” (Journal of Experimental Botany, 2025).

Assay [1] concerns the target Arabidopsis thaliana adenosine kinase 2 (6×His-AtADK2) (Arabidopsis thaliana) (UniProt Q9LZG0). The assay can be described thus: SEC; gel permeation chromatography of 6×His-AtADK2 at 1.2 mg/ml (preliminary results, Supplementary Fig. S10).
Assay [2] shares this target. The assay can be described thus: dynamic light scattering; AtADK2 at higher concentrations (5 mg/ml) (preliminary results).
The target in assay [3] is Zea mays adenosine kinase 3 (ZmADK3) (Zea mays). The assay can be described thus: SEC; gel permeation chromatography of maize ADKs at higher concentrations (30 mg/ml), Supplementary Fig. S1.
Assay [4] concerns the target Physcomitrella patens adenosine kinase 2 (PpADK2) (Physcomitrella patens). The assay can be described thus: SEC; gel permeation chromatography of moss ADKs on Superdex 200 10/30 HR, 20 mM Tris-HCl pH 7.5, 100 mM NaCl; dimers from 0.01 mg/ml (0.25 µM), mainly dimeric above 0.3 mg/ml (7.7 µM); monomer to dimer.
Assay [5] shares this target.
The target of assay [6] is Physcomitrella patens adenosine kinase 1 (PpADK1) (Physcomitrella patens) (UniProt O49923). The assay can be described thus: SEC; gel permeation chromatography of moss ADKs on Superdex 200 10/30 HR, 20 mM Tris-HCl pH 7.5, 100 mM NaCl; dimers from 0.01 mg/ml (0.25 µM), mainly dimeric above 0.3 mg/ml (7.7 µM); monomer to dimer.
The target is the same in assay [7]. The assay can be described thus: dynamic light scattering; hydrodynamic diameter, 20 mM Tris-HCl pH 7.5, 1 mM MgCl2, apoform or with 2 mM ATP, 22 °C.
Assay [8] has the same target. Nature of the assay: SAXS; small-angle X-ray scattering, 50 mM Tris-HCl pH 7.5, three concentrations up to 5 mg/ml; Guinier analysis and Bayesian molecular weight estimate.
The target is the same in assay [9].
Assay [10] has the same target. The assay can be described thus: AUC; sedimentation velocity of PpADK1 at a higher concentration (>0.3 mg/ml), 20 mM Tris-HCl pH 7.5, 150 mM NaCl, 10 mM MgCl2, 10 µM DTT, 1% glycerol, 25 °C, c(s) analysis; monomer to dimer.
Assay [11] deals with Zea mays adenosine kinase 1 (ZmADK1) (Zea mays). The assay can be described thus: SEC; gel permeation chromatography of maize ADKs at higher concentrations (30 mg/ml), Supplementary Fig. S1.
Assay [12] concerns the target Zea mays adenosine kinase 2 (ZmADK2) (Zea mays). Described as above.

For “Arabidopsis thaliana adenosine kinase 2 (6×His-AtADK2) (from UniProt Q9LZG0 1-345) (enzyme)”, the stoichiometry N in assay [1] and in assay [2] was 2 throughout.

In assay [3], “Zea mays adenosine kinase 3 (ZmADK3) (enzyme)” gave a stoichiometry N of 2.

In assay [4], “Physcomitrella patens adenosine kinase 2 (PpADK2) (enzyme)” showed a stoichiometry N of 2. For the same substance, the specific activity with 100 µM Ado (coupled reaction with PK and LDH, 30 °C) (nmol s^–1 mg^–1) in assay [5] amounted to 4.7.

With “Physcomitrella patens adenosine kinase 1 (PpADK1) (from UniProt O49923 1-343) (enzyme)”, the stoichiometry N in assay [6], in assay [7], in assay [8] and in assay [10] was 2 in each case. In [9], this substance had a specific activity with 100 µM Ado (coupled reaction with PK and LDH, 30 °C) (nmol s^–1 mg^–1) of 5.09.

Consider “Zea mays adenosine kinase 1 (ZmADK1) (enzyme)”, for which, in assay [11], the stoichiometry N was 2.

“Zea mays adenosine kinase 2 (ZmADK2) (enzyme)” returned a stoichiometry N in assay [12] of 2.
